Measurements reported in paper PMC9482650, “Quantitative fragmentomics allow affinity mapping of interactomes” (Nature Communications, 2022).

Experiments:
Experiment in all cases: holdup assay
Design in all cases: key: below the threshold = too weak to quantify, mostly under pKd 3.1 to 4
SHANK1, Q9Y566 = molecular target: T1, SHANK1, Q9Y566
T1 sequence (Q9Y566 658-767, limits assumed, looked up): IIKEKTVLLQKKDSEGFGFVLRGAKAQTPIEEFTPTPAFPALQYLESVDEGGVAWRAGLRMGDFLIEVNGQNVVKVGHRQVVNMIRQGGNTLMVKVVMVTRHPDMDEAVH

AHNAK1, Q09666 = molecular target: AHNAK1, Q09666
NHERF3_4, Q5T2W1 = molecular target: T2, NHERF3_4, Q5T2W1
T2 sequence (Q5T2W1 373-468, limits assumed, looked up): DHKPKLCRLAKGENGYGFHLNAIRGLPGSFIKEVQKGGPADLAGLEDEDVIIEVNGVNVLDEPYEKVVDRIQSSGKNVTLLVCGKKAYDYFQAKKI

MAGI2_6, Q86UL8 = molecular target: MAGI2_6, Q86UL8
PDZD7_3, Q9H5P4 = molecular target: T3, PDZD7_3, Q9H5P4
T3 sequence (Q9H5P4 857-944, limits assumed, looked up): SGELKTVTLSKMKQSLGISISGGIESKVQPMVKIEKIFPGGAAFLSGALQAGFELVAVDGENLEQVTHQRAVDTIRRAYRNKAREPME

MAGI2_5, Q86UL8 = molecular target: MAGI2_5, Q86UL8
DLG4_2, P78352 = molecular target: DLG4_2, P78352
LNX2_2, Q8N448 = molecular target: T4, LNX2_2, Q8N448
T4 sequence (Q8N448 334-432, limits assumed, looked up): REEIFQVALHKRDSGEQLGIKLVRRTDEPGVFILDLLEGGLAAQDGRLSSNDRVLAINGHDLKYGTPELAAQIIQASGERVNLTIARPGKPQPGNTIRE

MPDZ_12, O75970 = molecular target: T5, MPDZ_12, O75970
T5 sequence (O75970 1857-1958, limits assumed, looked up): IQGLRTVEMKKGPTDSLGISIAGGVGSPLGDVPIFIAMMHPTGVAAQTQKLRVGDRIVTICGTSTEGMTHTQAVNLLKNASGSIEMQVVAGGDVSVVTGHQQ

PDZRN4_1, Q6ZMN7 = molecular target: PDZRN4_1, Q6ZMN7
DLG2_2, Q15700 = molecular target: DLG2_2, Q15700
LNX1_2, Q8TBB1 = molecular target: LNX1_2, Q8TBB1
LNX1_1, Q8TBB1 = molecular target: LNX1_1, Q8TBB1
PTPN13_1, Q12923 = molecular target: T6, PTPN13_1, Q12923
T6 sequence (Q12923 1088-1188, limits assumed, looked up): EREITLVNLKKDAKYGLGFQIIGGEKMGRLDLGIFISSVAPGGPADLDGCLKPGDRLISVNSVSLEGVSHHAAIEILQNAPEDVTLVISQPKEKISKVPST

GRIP1_5, Q9Y3R0 = molecular target: T7, GRIP1_5, Q9Y3R0
T7 sequence (Q9Y3R0 568-668, limits assumed, looked up): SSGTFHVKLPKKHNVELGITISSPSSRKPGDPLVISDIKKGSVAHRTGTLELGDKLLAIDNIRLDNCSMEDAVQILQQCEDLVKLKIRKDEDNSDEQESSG

DLG4_3, P78352 = molecular target: DLG4_3, P78352
APBA2_2, Q99767 = molecular target: T8, APBA2_2, Q99767
T8 sequence (Q99767 654-744, limits assumed, looked up): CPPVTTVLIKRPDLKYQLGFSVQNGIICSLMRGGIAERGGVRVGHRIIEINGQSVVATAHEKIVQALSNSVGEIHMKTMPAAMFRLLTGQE

FRMPD4, Q14CM0 = molecular target: FRMPD4, Q14CM0
Inadl_3, Q8NI35 = molecular target: Inadl_3, Q8NI35
Inadl_1, Q8NI35 = molecular target: Inadl_1, Q8NI35
APBA3_1, O96018 = molecular target: T9, APBA3_1, O96018
T9 sequence (O96018 389-490, limits assumed, looked up): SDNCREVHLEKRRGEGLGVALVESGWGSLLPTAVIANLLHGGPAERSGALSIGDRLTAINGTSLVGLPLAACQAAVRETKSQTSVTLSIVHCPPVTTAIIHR

HTRA4, P83105 = molecular target: T10, HTRA4, P83105
T10 sequence (P83105 378-476, limits assumed, looked up): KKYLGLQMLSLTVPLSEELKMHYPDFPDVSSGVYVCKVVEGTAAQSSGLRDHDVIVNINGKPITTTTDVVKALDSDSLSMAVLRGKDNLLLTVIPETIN

PTPN3, P26045 = molecular target: PTPN3, P26045
RAPGEF6, Q8TEU7 = molecular target: T11, RAPGEF6, Q8TEU7
T11 sequence (Q8TEU7 525-625, limits assumed, looked up): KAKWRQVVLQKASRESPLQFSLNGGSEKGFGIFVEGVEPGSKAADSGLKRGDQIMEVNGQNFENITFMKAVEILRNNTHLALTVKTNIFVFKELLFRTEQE

Inadl_9, Q8NI35 = molecular target: Inadl_9, Q8NI35
LIMK2, P53671 = molecular target: LIMK2, P53671
DLG1_1, Q12959 = molecular target: DLG1_1, Q12959
[1] = plain residues with an end cap or a label only (N-terminal biotin on a linker: ado-ado)
[2] = plain residues with an end cap or a label only (N-terminal biotin on a linker: ahx)

Sequence of DLG4_3, P78352 (P78352 306-403): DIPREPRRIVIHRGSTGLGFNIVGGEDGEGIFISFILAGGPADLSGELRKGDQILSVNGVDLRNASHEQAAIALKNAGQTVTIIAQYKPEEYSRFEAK
Sequence of LIMK2, P53671 (P53671 143-248): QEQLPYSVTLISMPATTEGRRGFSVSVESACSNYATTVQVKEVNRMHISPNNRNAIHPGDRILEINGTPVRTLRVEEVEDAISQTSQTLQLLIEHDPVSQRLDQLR
Sequence of LNX1_2, Q8TBB1 (Q8TBB1 371-470): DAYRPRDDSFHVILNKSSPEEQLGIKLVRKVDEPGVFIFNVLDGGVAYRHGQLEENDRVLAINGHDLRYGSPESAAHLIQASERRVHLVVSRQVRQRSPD
Sequence of PDZRN4_1, Q6ZMN7 (Q6ZMN7 213-318): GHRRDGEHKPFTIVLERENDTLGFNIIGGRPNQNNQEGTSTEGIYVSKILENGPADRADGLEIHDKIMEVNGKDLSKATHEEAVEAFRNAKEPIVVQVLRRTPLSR
Sequence of MAGI2_5, Q86UL8 (Q86UL8 915-1017): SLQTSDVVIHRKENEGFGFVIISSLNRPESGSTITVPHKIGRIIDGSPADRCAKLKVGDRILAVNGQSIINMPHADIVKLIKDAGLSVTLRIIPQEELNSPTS
Sequence of Inadl_1, Q8NI35 (Q8NI35 113-229): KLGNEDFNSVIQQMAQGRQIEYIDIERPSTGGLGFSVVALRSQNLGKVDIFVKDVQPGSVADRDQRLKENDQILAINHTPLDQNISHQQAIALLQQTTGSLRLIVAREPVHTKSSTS
Sequence of DLG4_2, P78352 (P78352 155-259): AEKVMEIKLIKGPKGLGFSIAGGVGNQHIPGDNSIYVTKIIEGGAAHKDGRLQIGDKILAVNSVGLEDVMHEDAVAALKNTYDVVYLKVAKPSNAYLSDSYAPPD
Sequence of AHNAK1, Q09666 (Q09666 4-100): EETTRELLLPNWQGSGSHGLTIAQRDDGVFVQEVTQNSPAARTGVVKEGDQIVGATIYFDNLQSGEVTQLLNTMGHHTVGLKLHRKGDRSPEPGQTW
Sequence of DLG2_2, Q15700 (Q15700 189-283): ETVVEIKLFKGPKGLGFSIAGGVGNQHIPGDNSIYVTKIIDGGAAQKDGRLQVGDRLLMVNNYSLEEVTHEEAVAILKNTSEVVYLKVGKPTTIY
Sequence of LNX1_1, Q8TBB1 (Q8TBB1 261-371): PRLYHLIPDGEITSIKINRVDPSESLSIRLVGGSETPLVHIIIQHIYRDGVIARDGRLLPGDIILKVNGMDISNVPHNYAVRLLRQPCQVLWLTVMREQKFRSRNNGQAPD
Sequence of PTPN3, P26045 (P26045 505-587): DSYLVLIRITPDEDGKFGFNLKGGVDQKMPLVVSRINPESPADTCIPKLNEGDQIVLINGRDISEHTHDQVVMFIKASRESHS
Sequence of Inadl_3, Q8NI35 (Q8NI35 359-469): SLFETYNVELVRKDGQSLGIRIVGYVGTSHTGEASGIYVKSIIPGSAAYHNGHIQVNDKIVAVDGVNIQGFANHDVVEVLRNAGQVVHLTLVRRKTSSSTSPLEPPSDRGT
Sequence of MAGI2_6, Q86UL8 (Q86UL8 1141-1229): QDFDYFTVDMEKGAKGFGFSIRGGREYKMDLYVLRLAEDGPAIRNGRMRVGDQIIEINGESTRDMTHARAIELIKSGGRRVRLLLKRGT
Sequence of Inadl_9, Q8NI35 (Q8NI35 1530-1615): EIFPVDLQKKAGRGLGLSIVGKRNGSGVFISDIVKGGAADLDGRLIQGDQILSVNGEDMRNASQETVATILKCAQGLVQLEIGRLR
Sequence of FRMPD4, Q14CM0 (Q14CM0 67-160): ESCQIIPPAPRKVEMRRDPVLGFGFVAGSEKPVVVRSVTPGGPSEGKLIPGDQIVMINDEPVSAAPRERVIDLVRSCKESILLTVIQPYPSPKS

B1: OR8G1, Q15617 (peptide)
chain: KKMLQRRTLL
- pKd (SHANK1, Q9Y566; [1]): 4.71
- pKd (AHNAK1, Q09666; [1]): below the threshold
- pKd (NHERF3_4, Q5T2W1; [1]): 4.64
- pKd (MAGI2_6, Q86UL8; [1]): below the threshold
- pKd (PDZD7_3, Q9H5P4; [1]): 4.61
- pKd (MAGI2_5, Q86UL8; [1]): 4.59
- pKd (DLG4_2, P78352; [1]): 3.81
- pKd (LNX2_2, Q8N448; [1]): below the threshold
- pKd (MPDZ_12, O75970; [1]): below the threshold
- pKd (PDZRN4_1, Q6ZMN7; [1]): below the threshold
- pKd (DLG2_2, Q15700; [1]): below the threshold
- pKd (LNX1_2, Q8TBB1; [1]): below the threshold
- pKd (LNX1_1, Q8TBB1; [1]): below the threshold
- pKd (PTPN13_1, Q12923; [1]): below the threshold
- pKd (GRIP1_5, Q9Y3R0; [1]): below the threshold
- pKd (DLG4_3, P78352; [1]): below the threshold
- pKd (APBA2_2, Q99767; [1]): below the threshold
- pKd (FRMPD4, Q14CM0; [1]): 3.53
- pKd (Inadl_3, Q8NI35; [1]): below the threshold
- pKd (Inadl_1, Q8NI35; [1]): below the threshold
- pKd (APBA3_1, O96018; [1]): below the threshold
- pKd (HTRA4, P83105; [1]): below the threshold
- pKd (PTPN3, P26045; [1]): 3.8
- pKd (RAPGEF6, Q8TEU7; [1]): below the threshold
- pKd (Inadl_9, Q8NI35; [1]): below the threshold
- pKd (LIMK2, P53671; [1]): below the threshold
- pKd (DLG1_1, Q12959; [1]): below the threshold

B2: ACE2, Q9BYF1 (peptide)
chain: QNTDDVQTSF
- pKd (SHANK1, Q9Y566; [2]): 4.75
- pKd (AHNAK1, Q09666; [2]): below the threshold
- pKd (NHERF3_4, Q5T2W1; [2]): 3.57
- pKd (MAGI2_6, Q86UL8; [2]): below the threshold
- pKd (PDZD7_3, Q9H5P4; [2]): 3.51
- pKd (MAGI2_5, Q86UL8; [2]): 4.21
- pKd (DLG4_2, P78352; [2]): below the threshold
- pKd (LNX2_2, Q8N448; [2]): below the threshold
- pKd (MPDZ_12, O75970; [2]): below the threshold
- pKd (PDZRN4_1, Q6ZMN7; [2]): below the threshold
- pKd (DLG2_2, Q15700; [2]): below the threshold
- pKd (LNX1_2, Q8TBB1; [2]): below the threshold
- pKd (LNX1_1, Q8TBB1; [2]): below the threshold
- pKd (PTPN13_1, Q12923; [2]): below the threshold
- pKd (GRIP1_5, Q9Y3R0; [2]): below the threshold
- pKd (DLG4_3, P78352; [2]): below the threshold
- pKd (APBA2_2, Q99767; [2]): below the threshold
- pKd (FRMPD4, Q14CM0; [2]): 3.67
- pKd (Inadl_3, Q8NI35; [2]): 3.66
- pKd (Inadl_1, Q8NI35; [2]): below the threshold
- pKd (APBA3_1, O96018; [2]): below the threshold
- pKd (HTRA4, P83105; [2]): below the threshold
- pKd (PTPN3, P26045; [2]): 4.45
- pKd (RAPGEF6, Q8TEU7; [2]): below the threshold
- pKd (Inadl_9, Q8NI35; [2]): below the threshold
- pKd (LIMK2, P53671; [2]): below the threshold
- pKd (DLG1_1, Q12959; [2]): below the threshold
